Measured values: article PMC6180346, “Two Faces of CwlM, an Essential PknB Substrate, in Mycobacterium tuberculosis” (Cell Reports, 2018)

T1: Recombinant 6xHis-tagged CwlM, non-phosphorylated (M. tuberculosis, UniProt L7N653 1-406)
T1 construct: also called non-phosphorylated recombinant CwlM; non-phosphorylated CwlM
T1 sequence: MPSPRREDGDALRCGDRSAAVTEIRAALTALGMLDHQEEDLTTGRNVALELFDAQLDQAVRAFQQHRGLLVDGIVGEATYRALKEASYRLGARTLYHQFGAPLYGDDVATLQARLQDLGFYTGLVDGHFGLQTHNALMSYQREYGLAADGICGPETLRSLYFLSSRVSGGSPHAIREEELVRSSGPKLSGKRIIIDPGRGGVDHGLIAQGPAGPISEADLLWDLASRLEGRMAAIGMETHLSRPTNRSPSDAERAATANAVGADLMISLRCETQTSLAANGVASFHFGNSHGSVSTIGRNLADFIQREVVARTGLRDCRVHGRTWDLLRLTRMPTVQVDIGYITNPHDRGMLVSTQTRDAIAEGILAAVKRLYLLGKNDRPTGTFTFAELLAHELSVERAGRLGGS


Legend:
Test in all cases: co-IP; recombinant CwlM (PknB-phosphorylated or non-phosphorylated) and the other recombinant protein, 10 μg each, in 20 mM KH2PO4 pH 7.0, 100 mM NaCl, 10 mM KCl, with anti-CwlM-IgG-Sepharose; bound and unbound on SDS-PAGE, Coomassie; densitometry as percent of the total amount used
[1] = molecular target: Recombinant 6xHis-tagged CwlM, PknB-phosphorylated (M. tuberculosis) (UniProt L7N653)
[2] = molecular target: Recombinant 6xHis-tagged CwlM, non-phosphorylated (M. tuberculosis) (UniProt L7N653)
[3] = molecular target: T1, Recombinant 6xHis-tagged CwlM, …; conditions: both partners purified

| Molecule | percent co-precipitated [1] | percent co-precipitated [2] | binding result [3] |
| --- | --- | --- | --- |
| Recombinant 6XHis-tagged MurJ ICD (domain or fragment) | 12% | 85% |  |
| Recombinant 6xHis-tagged 6xHis-MurJ_(E541-F680) (domain or fragment, The N-terminal end of the tag is read from the printed name 6xHis-MurJ_(E541-F680); also called MurJ linker; linker region (E541-F680)) EARAALDAVRARIRSRRLKTGPQTQNVLDQSSRPGPVTYPERRRLAPPRGKSVVHEPIRRRPPEQVARAGRAKGPEVIDRPSENASFGAASGAELPRPVADELQLDAPAGRDPGPVSRPHPSDLQNGDLPADAARGPIAF |  |  | binds |
